Assay results reported in US20240209113A1 (BEIGENE SWITZERLAND, published 2024).
One block for each binder: values may come before it.

Experiments:
[1] = molecular target: T1, Human CD137 ectodomain containing four CRDs (crystallization construct) (human, UniProt Q07011 24-162); assay: complex purified by gel filtration and crystallized
T1 construct: Expressed with a C-terminal TEV site and Fc tag; the Fc tag was cut off
T1 chain: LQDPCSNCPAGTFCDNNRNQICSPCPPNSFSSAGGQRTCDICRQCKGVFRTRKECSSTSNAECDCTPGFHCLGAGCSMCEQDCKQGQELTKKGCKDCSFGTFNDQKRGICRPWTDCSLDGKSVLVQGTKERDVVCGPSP
Procedure: The complex was then further purified by gel filtration in buffer (20 mM Tris pH 8.0, 100 mM NaCl) using a HiLoad 16/600 Superdex™ 75 pg column (GE Healthcare Life Sciences). […] Crystals cryoprotected with stepwise 5% D-(+)-Sucrose to a final 20% concentration were flash frozen in liquid nitrogen. […] Crystal was cryoprotected with 7% glycerol and flash frozen in liquid nitrogen. The X-ray diffraction data was collected at beamline BL45XU at Spring-8 synchrotron radiation facility (Hyogo, Japan).

[2] = molecular target: T2, TNFRSF1A(CD120a) (UniProt P19438 30-211, limits assumed); assay: ELISA, antigens coated at 10 ug/ml; antibody concentration not given
T2 construct: Bought protein
T2 sequence (looked up): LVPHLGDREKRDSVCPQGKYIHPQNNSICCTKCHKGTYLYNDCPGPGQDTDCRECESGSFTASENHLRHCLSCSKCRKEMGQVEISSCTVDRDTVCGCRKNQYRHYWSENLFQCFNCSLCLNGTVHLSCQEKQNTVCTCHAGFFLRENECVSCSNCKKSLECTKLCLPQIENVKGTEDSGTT

[3] = molecular target: T3, TNFRSF1B(CD120b) (UniProt P20333 23-257); assay: as above
T3 construct: Bought protein
T3 sequence (looked up): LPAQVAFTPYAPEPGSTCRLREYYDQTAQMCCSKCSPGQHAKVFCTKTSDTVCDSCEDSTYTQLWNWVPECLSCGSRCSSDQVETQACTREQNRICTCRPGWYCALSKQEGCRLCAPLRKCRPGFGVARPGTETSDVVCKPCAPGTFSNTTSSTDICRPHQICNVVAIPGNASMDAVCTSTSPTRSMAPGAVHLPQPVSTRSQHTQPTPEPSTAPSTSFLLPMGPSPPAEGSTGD

[4] = molecular target: T4, human OX40 ECD-His (human, UniProt P43489 29-216); assay: as above
T4 construct: also called human OX40-his; huOX40
T4 sequence: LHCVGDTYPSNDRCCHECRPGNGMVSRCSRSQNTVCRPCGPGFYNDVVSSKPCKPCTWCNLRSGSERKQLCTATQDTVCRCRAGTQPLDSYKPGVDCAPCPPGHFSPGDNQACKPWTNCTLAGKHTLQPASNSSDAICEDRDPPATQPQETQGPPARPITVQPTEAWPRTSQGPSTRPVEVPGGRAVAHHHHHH

[5] = molecular target: T5, human CD40 ECD-mIgG2a (human); assay: as above
T5 construct: also called huCD40; TNFRSF5(CD40)

[6] = molecular target: T6, human CD137 ECD-mIgG2a (human); assay: competition ELISA on coated human CD137 ECD-mIgG2a: BGA-5623 (IgG4 Fc) detected with anti-human IgG-HRP in the presence of serially diluted human CD137 ligand ECD-mIgG2a
T6 construct: Human CD137 AA 24-183 fused to mouse IgG2a Fc; also called huCD137

T5 sequence (chain, as listed by the source limits assumed): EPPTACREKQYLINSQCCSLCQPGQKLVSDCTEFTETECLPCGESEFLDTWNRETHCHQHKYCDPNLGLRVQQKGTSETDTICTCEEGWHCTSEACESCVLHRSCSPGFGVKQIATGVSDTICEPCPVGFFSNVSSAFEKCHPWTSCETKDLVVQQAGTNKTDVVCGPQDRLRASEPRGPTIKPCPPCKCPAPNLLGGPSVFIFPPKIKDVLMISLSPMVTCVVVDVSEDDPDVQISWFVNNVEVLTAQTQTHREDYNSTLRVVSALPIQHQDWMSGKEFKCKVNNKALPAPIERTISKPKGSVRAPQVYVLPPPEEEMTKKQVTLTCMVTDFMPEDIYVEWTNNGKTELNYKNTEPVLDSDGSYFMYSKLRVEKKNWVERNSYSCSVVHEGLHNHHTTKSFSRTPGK

- binding result [1]: binds
B1: VH (BGA-5623) (VHH)
VHH: EVQLLESGGGLVQPGGSLRLSCAASGFTVSAEDVGWVRQAPGKGLEWVSAILDKGGSTYYAESVKGRFTISRDNAKNTLYLQMSSLRAEDTAVYYCARIVYHAGGGVTFDTRGQGTQVTVSS
notes: Human VH single domain made in E. coli with an N-terminal HIS-MBP tag removed by TEV protease

- binding result [2]: no binding
- binding result [3]: no binding
- binding result [4]: no binding
- binding result [5]: no binding
B2: Urelumab analog (antibody, human IgG4 S228P, kappa, V domains shown)
VH: QVQLQQWGAGLLKPSETLSLTCAVYGGSFSGYYWSWIRQSPEKGLEWIGEINHGGYVTYNPSLESRVTISVDTSKNQFSLKLSSVTAADTAVYYCARDYGPGNYDWYFDLWGRGTLVTVSS
VL: EIVLTQSPATLSLSPGERATLSCRASQSVSSYLAWYQQKPGQAPRLLIYDASNRATGIPARFSGSGSGTDFTLTISSLEPEDFAVYYCQQRSNWPPALTFGGGTKVEIKR
notes: also called Urelumab analog antibody

- IC50 (read off the curve) [6]: ~2 µg/mL
B3: human CD137 ligand-mIgG2a (Fc fusion)
chain: EPRGPTIKPCPPCKCPAPNLLGGPSVFIFPPKIKDVLMISLSPIVTCVVVDVSEDDPDVQISWFVNNVEVHTAQTQTHREDYNSTLRVVSALPIQHQDWMSGKEFKCKVNNKDLPAPIERTISKPKGSVRAPQVYVLPPPEEEMTKKQVTLTCMVTDFMPEDIYVEWTNNGKTELNYKNTEPVLDSDGSYFMYSKLRVEKKNWVERNSYSCSVVHEGLHNHHTTKSFSRTPGKGGGGSREGPELSPDDPAGLLDLRQGMFAQLVAQNVLLIDGPLSWYSDPGLAGVSLTGGLSYKEDTKELVVAKAGVYYVFFQLELRRVVAGEGSGSVSLALHLQPLRSAAGAAALALTVDLPPASSEARNSAFGFQGRLLHLSAGQRLGVHLHTEARARHAWQLTQGATVLGLFRVTPEIPAGLPSPRSE
notes: also called human CD137 ligand ECD-mIgG2a; huCD137 ligand
